Tested on: Escherichia coli TOP10
Experiment: shrunken log2 fold change of peptide-encoding DNA abundance (4.5 h post-induction vs induction); higher = less antimicrobial activity (less host growth inhibition)
Conditions: time post-induction: 4.5 h; library: site-saturation at positions 5, 18, 19, 20
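Further: peptides expressed intracellularly from a pBAD plasmid library in pooled LB shake-flask culture, induced with 0.3% L-arabinose, DNA abundance read by NGS, three biological replicates, DESeq2 with apeglm shrinkage.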

| Sequence | shrunken log2 fold change |
| --- | --- |
| RRIRIRPPRLPRPRPRPCWLPRP | -0.196 |
| RRIRIRPPRLPRPRPRPCWRPRP | 0.157 |
| RRIRIRPPRLPRPRPRPCYVPRP | -0.411 |
| RRIRIRPPRLPRPRPRPDAVPRP | 0.0396 |
| RRIRIRPPRLPRPRPRPDCLPRP | 0.0966 |
| RRIRIRPPRLPRPRPRPDDMPRP | -0.0552 |
| RRIRIRPPRLPRPRPRPDGSPRP | -0.189 |
| RRIRIRPPRLPRPRPRPDGYPRP | -0.00133 |
| RRIRIRPPRLPRPRPRPDHWPRP | 0.0629 |
| RRIRIRPPRLPRPRPRPDHYPRP | -0.38 |
| RRIRIRPPRLPRPRPRPDKCPRP | -0.0188 |
| RRIRIRPPRLPRPRPRPDKLPRP | -0.275 |
| RRIRIRPPRLPRPRPRPDMCPRP | 0.00741 |
| RRIRIRPPRLPRPRPRPDMEPRP | 0.0763 |
| RRIRIRPPRLPRPRPRPDNIPRP | -0.116 |
| RRIRIRPPRLPRPRPRPDNRPRP | -0.00277 |
| RRIRIRPPRLPRPRPRPDPDPRP | -0.131 |
| RRIRIRPPRLPRPRPRPDPKPRP | -0.183 |
| RRIRIRPPRLPRPRPRPDQYPRP | -0.0181 |
| RRIRIRPPRLPRPRPRPDSCPRP | -0.972 |
| RRIRIRPPRLPRPRPRPDSFPRP | 0.0771 |
| RRIRIRPPRLPRPRPRPDSNPRP | -0.168 |
| RRIRIRPPRLPRPRPRPDSQPRP | -0.0342 |
| RRIRIRPPRLPRPRPRPDTAPRP | -0.232 |
| RRIRIRPPRLPRPRPRPDTTPRP | -0.243 |

| Sequence | shrunken log2 fold change |
| --- | --- |
| RRIRIRPPRLPRPRPRPDWHPRP | -0.882 |
| RRIRIRPPRLPRPRPRPECGPRP | -0.118 |
| RRIRIRPPRLPRPRPRPEDYPRP | -0.0393 |
| RRIRIRPPRLPRPRPRPEELPRP | -0.0241 |
| RRIRIRPPRLPRPRPRPEGRPRP | -0.0382 |
| RRIRIRPPRLPRPRPRPEHFPRP | -0.0163 |
| RRIRIRPPRLPRPRPRPELKPRP | 0.224 |
| RRIRIRPPRLPRPRPRPELSPRP | -0.476 |
| RRIRIRPPRLPRPRPRPELVPRP | -0.105 |
| RRIRIRPPRLPRPRPRPEMMPRP | 0.0516 |
| RRIRIRPPRLPRPRPRPEMWPRP | 0.0226 |
| RRIRIRPPRLPRPRPRPENWPRP | -0.00191 |
| RRIRIRPPRLPRPRPRPEPHPRP | -0.0648 |
| RRIRIRPPRLPRPRPRPEPIPRP | 0.185 |
| RRIRIRPPRLPRPRPRPEPNPRP | -0.0783 |
| RRIRIRPPRLPRPRPRPESGPRP | -0.135 |
| RRIRIRPPRLPRPRPRPESWPRP | 0.249 |
| RRIRIRPPRLPRPRPRPETCPRP | 0.00626 |
| RRIRIRPPRLPRPRPRPFADPRP | -0.26 |
| RRIRIRPPRLPRPRPRPFAFPRP | -0.155 |
| RRIRIRPPRLPRPRPRPFAPPRP | 1.3 |
| RRIRIRPPRLPRPRPRPFEDPRP | -0.207 |
| RRIRIRPPRLPRPRPRPFETPRP | -0.231 |
| RRIRIRPPRLPRPRPRPFFGPRP | -0.00653 |
| RRIRIRPPRLPRPRPRPFFPPRP | -0.264 |

| Sequence | shrunken log2 fold change |
| --- | --- |
| RRIRIRPPRLPRPRPRPFGFPRP | -0.694 |
| RRIRIRPPRLPRPRPRPFHDPRP | -0.374 |
| RRIRIRPPRLPRPRPRPFLEPRP | -1.1 |
| RRIRIRPPRLPRPRPRPFMPPRP | -0.821 |
| RRIRIRPPRLPRPRPRPFNDPRP | -0.0749 |
| RRIRIRPPRLPRPRPRPFNMPRP | -2.55 |
| RRIRIRPPRLPRPRPRPFNTPRP | -0.191 |
| RRIRIRPPRLPRPRPRPFPFPRP | -1.39 |
| RRIRIRPPRLPRPRPRPFPHPRP | -0.174 |
| RRIRIRPPRLPRPRPRPFPRPRP | -0.123 |
| RRIRIRPPRLPRPRPRPFRFPRP | -0.392 |
| RRIRIRPPRLPRPRPRPFRPPRP | 0.023 |
| RRIRIRPPRLPRPRPRPFSCPRP | -0.534 |
| RRIRIRPPRLPRPRPRPFSQPRP | -0.52 |
| RRIRIRPPRLPRPRPRPFTEPRP | 0.0282 |
| RRIRIRPPRLPRPRPRPFTIPRP | -0.246 |
| RRIRIRPPRLPRPRPRPFTLPRP | 0.0488 |
| RRIRIRPPRLPRPRPRPFTSPRP | -0.475 |
| RRIRIRPPRLPRPRPRPFVHPRP | -0.498 |
| RRIRIRPPRLPRPRPRPFWCPRP | -0.014 |
| RRIRIRPPRLPRPRPRPFWWPRP | 0.0783 |
| RRIRIRPPRLPRPRPRPFYIPRP | -0.308 |
| RRIRIRPPRLPRPRPRPGASPRP | 0.0546 |
| RRIRIRPPRLPRPRPRPGAWPRP | 0.215 |
| RRIRIRPPRLPRPRPRPGERPRP | -0.0896 |

— the supplement of paper PMC9112550, “Optimization of the antimicrobial peptide Bac7 by deep mutational scanning” (BMC Biology, 2022)
